Laboratory results from paper PMC8472245.

Molecular target: FLAG-tagged KSHV ORF33 (Kaposi sarcoma-associated herpesvirus (KSHV))
Experiment: not given
Conditions: not given

Sequence of FLAG-tagged KSHV ORF33 (Kaposi sarcoma-associated herpesvirus (KSHV)) (F5HEF2 whole entry): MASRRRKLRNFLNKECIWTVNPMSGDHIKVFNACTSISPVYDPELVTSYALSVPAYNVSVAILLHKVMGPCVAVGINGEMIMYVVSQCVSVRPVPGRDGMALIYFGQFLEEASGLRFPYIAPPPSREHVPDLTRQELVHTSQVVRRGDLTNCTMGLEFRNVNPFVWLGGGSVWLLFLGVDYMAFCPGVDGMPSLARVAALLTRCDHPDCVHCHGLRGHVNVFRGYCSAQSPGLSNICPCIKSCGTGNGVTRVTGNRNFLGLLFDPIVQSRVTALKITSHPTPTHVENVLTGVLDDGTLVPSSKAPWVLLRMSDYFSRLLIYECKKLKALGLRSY

Substance | yield of extracellular KSHV genomes (qPCR) from induced iSLK.BAC16 cells treated with the peptide, up to 200 uM, 5 days; the peptide blocks ORF45-ORF33
TAT-C19 peptide (from UniProt F5HDE4 389-407) | 34.1 µM

Molecular target: FLAG-tagged KSHV ORF33
Experiment: ELISA
Conditions: parent: est. 0.68; read off a plot

Substance | response
GST-tagged KSHV ORF45-C19 (from UniProt F5HDE4) C396A | 0.058 Absorbance
GST-tagged KSHV ORF45-C19 (from UniProt F5HDE4) D407A | 0.69 Absorbance
GST-tagged KSHV ORF45-C19 (from UniProt F5HDE4) G397A | 0.19 Absorbance
GST-tagged KSHV ORF45-C19 (from UniProt F5HDE4) L395A | 0.21 Absorbance
GST-tagged KSHV ORF45-C19 (from UniProt F5HDE4) L406A | 0.44 Absorbance
GST-tagged KSHV ORF45-C19 (from UniProt F5HDE4) N402A | 0.69 Absorbance
GST-tagged KSHV ORF45-C19 (from UniProt F5HDE4) P393A | 0.42 Absorbance
GST-tagged KSHV ORF45-C19 (from UniProt F5HDE4) P394A | 0.058 Absorbance
GST-tagged KSHV ORF45-C19 (from UniProt F5HDE4) P404A | 0.09 Absorbance
GST-tagged KSHV ORF45-C19 (from UniProt F5HDE4) T392A | 0.085 Absorbance
GST-tagged KSHV ORF45-C19 (from UniProt F5HDE4) W403A | 0.07 Absorbance
GST-tagged KSHV ORF45-C19 (from UniProt F5HDE4) W405A | 0.058 Absorbance
GST-tagged KSHV ORF45-C19 (from UniProt F5HDE4) Y401A | 0.058 Absorbance
